Measured values reported in the supplement of paper PMC12667976.

B1: library; numbered along this chain (parent)
chain: MATDAALRRLLRLHRTEIAVAVDSAFPLLHALADHDVVPEDKFQETLHLKEKEGCPQAFHALLSWLLTQDSTAILDFWRVLFKDYNLERYGRLQPILDSFPKDVDLSQPRKGRKPPAVPKALVPPPRLPTKRKASEEARAAAPAALTPRGTASPGSQLKAKPPKKPESSAEQQRLPLGNGIQTMSASVQRAVAMSSGDVPGARGAVEGILIQQVFESGGSKKCIQVGGEFYTPSKFEDSGSGKNKARSSSGPKPLVRAKGAQGAAPGGGEARLGQQGSVPAPLALPSDPQLHQKNEDECAVCRDGGELICCDGCPRAFHLACLSPPLREIPSGTWRCSSCLQATVQEVQPRAEEPRPQEPPVETPLPPGLRSAGEEVRGPPGEPLAGMDTTLVYKHLPAPPSAAPLPGLDSSALHPLLCVGPEGQQNLAPGARCGVCGDGTDVLRCTHCAAAFHWRCHFPAGTSRPGTGLRCRSCSGDVTPAPVEGVLAPSPARLAPGPAKDDTASHEPALHRDDLESLLSEHTFDGILQWAIQSMARPAAPFPS

Variants of: B1
Experiment: AIRE transcriptional activation functional score (insulin promoter-GFP; nonsense median 0, synonymous median 1) (normalised score); higher = higher AIRE activity (more reporter activation)
Details: with insulin promoter-GFP reporter in HEK293
Procedure: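 Deep mutational scan of full-length human AIRE (codon-optimized cDNA, DT-POPCode NNN libraries over three regions) integrated at a Bxb1 landing pad in HEK293 cells carrying an insulin core promoter-GFP reporter at a Flp-In site. Cells were sorted for the top 10% GFP about 14 days after transfection. Variant frequency log-ratios (select vs non-select, TileSeq) were rescaled so that the nonsense median is 0 and the synonymous median is 1, then averaged over biological replicates.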

AIRE transcriptional activation functional score: each site, then its substitutions
E167: S 0.898 | F 1.89 | Y 2.17 | G 1.02 | R 0.328 | L 1.76 | Q 0.862 | K 0.721 | P 0.414 | C 1.33 | N 1.8 | V 1.18 | W 2.34 | H -0.185 | M 1.68 | A 0.894 | T 0.707 | D 1.12 | I 1.19
K164: F 1.41 | N 1.52 | D -0.844 | S 1.22 | P 1.62 | T 0.821 | A 1.17 | G 1.83 | W 1.33 | L 1.14 | I 0.719 | V 0.666 | H 1.27 | M 1.88 | E 0.857 | R 1.85 | Q 0.909 | C 0.129 | Y 0.624
S168: N 0.613 | D 0.307 | C 1 | E 0.606 | W 1.46 | P -0.113 | K 1.08 | G 0.755 | M 1.47 | R 1.36 | A 0.888 | I 0.348 | V 0.761 | H 1.23 | L 0.825 | Q 0.489 | T 1.06 | F 1.44 | Y 1.37
K159: R 1.48 | N 1.33 | S 0.905 | Y 1.33 | Q 0.00224 | L 1.18 | P 0.44 | W 1.36 | I 1.4 | V 1.06 | T 1.05 | M 0.791
R174: Q 0.21 | A 0.803 | N -0.393 | S 0.758 | I 0.22 | C 0.35 | D 0.334 | E 0.744 | G 0.531 | V 0.506 | F 1.53 | M 0.283 | L 0.495 | Y 1.09 | T 0.614 | H 0.805 | W 2.14 | P 0.727 | K 0.973
A160: W 1.82 | M 0.0796 | R 1.01 | I 0.857 | G 0.964 | V 1.38 | Q -0.113 | H 0.574 | D 0.974 | E -0.0286 | L 0.749 | F 1.12 | K -0.392 | N 0.242 | P -0.0016 | Y 1.08 | S 1.14 | T 0.43 | C 1.05
P166: I 1.24 | F 1.94 | R 0.947 | N 1.41 | A 1.16 | C 1.43 | M 1.41 | D 0.983 | G 1.61 | K -0.231 | Y 1.19 | V 0.921 | T 1.36 | Q 1.16 | E -0.713 | W -0.356 | L 0.95 | H 1.95 | S 0.939
K165: S 0.597 | A -0.0692 | N 0.909 | L 0.369 | H 1.16 | F 1.23 | V 0.921 | I 2.29 | M 1.15 | G 0.47 | D 0.206 | Q 0.596 | C 0.37 | Y 0.91 | W 1.06 | T -0.814 | E 1.01 | P -0.251 | R 0.872
Q173: K 1.44 | A 0.957 | T 1.44 | F 1.97 | P 1.05 | M 2.11 | E 0.663 | G 0.757 | N 1.68 | I 1.45 | D 0.988 | L 1.52 | W 1.54 | V 1.32 | C 1.51 | Y 1.93 | H 0.885 | S 1.34 | R 1.67
P176: A 1.33 | C 2.34 | K 1.33 | V 1.54 | N 0.411 | Y 1.88 | D -0.465 | I 1.65 | T 0.957 | E 0.297 | H 1.07 | R 1.63 | M 2.1 | F 1.46 | G 0.765 | W 1.08 | S 1.4 | L 1.6
S169: V 1.35 | T -0.214 | L 1.7 | F 1.46 | W 1.57 | M 0.503 | A 0.813 | I 1.2 | E 0.245 | D 1.22 | C 0.968 | Y 1.62 | G 1.42 | N 1.18 | R 0.711 | K 1.77 | P 1.73 | Q 0.286
P163: H 0.674 | V 0.445 | D -0.123 | Y 1.53 | W 2.35 | E 0.136 | A 0.36 | R 0.66 | N 1.73 | L 0.899 | S 1.3 | C 1.48 | T 0.923 | I 1.05 | M 0.889 | Q 1.05 | K 1.29 | G 0.723 | F 0.944
E171: Y 1.41 | K 0.709 | Q 1.15 | W 1.93 | S 1.96 | L 1.59 | G 1.27 | N 1.05 | V 1.65 | H 1.64 | P 1.23 | M 2.07 | A 1.77 | D 0.998 | T 1.52 | F 2.29 | I 1.63 | C 1.96 | R 1.22
A170: C 1.24 | K 1.97 | F 1.69 | I 0.784 | Q 0.496 | R 1.29 | E 0.67 | H 1.86 | G 0.778 | W 1.84 | S 0.78 | L 0.356 | V 0.782 | M 0.0569 | T 0.748 | D 0.761 | P 0.929 | N 1.2 | Y 2.08
K161: S 0.458 | P 0.742 | F 1.69 | M 0.88 | E 0.442 | V 1.11 | Q 0.799 | D 1.13 | H 0.866 | N 0.888 | A 0.612 | G 1.56 | L 1.14 | I 1.27 | W 0.29 | Y 0.674 | T 0.898 | R 1.55 | C 1.56
P162: Q 1.54 | C 1.41 | Y 2.9 | F 1.37 | G 1.1 | R 0.224 | A 0.796 | W 1.26 | S 0.476 | L 1.04 | M 0.548 | V 0.356 | T 0.633 | N -1.7 | H 2.88 | I 1.97 | E 0.27
L175: Q 1.1 | H 1.33 | N 0.295 | D 1.04 | E -0.0357 | W 1.8 | A 0.583 | S 0.686 | I 0.709 | P 0.463 | R 1.06 | M 1.05 | F 1.16 | V 0.629 | G 0.614 | C 0.818 | K 0.766 | T 0.916 | Y 1.5
Q172: W 1.71 | H 1.81 | S 0.645 | F 1.82 | C 1.13 | T 1.56 | E 0.286 | K 0.844 | N 0.691 | P 0.611 | V 1.18 | D 1.14 | I 2.08 | G 0.609 | Y 1.7 | L 1.55 | M 2.4 | A 0.74 | R 1.46
L177: C 0.72 | A 0.839 | D 0.322
